In article PMC4543561:

Columns and labels:
purified protein [1] = substrate: C[C@H](CCC(=O)O)[C@H]1CC[C@H]2[C@@H]3CC[C@@H]4C[C@H](O)CC[C@]4(C)[C@H]3C[C@H](O)[C@]12C; assay: purified protein; details: oxidation, 10 mM MOPS pH 7.0, 37 °C
purified protein [2] = substrate: C[C@H](CCC(=O)O)[C@H]1CC[C@H]2[C@@H]3CC[C@@H]4CC(=O)CC[C@]4(C)[C@H]3C[C@H](O)[C@]12C; assay: purified protein; details: reduction, 10 mM MOPS pH 7.0, 37 °C

B1: Rumgna_02133 (Mediterraneibacter gnavus ATCC 29149) (protein)
chain: MFMMLKNKVAIVTGGTRGIGFAVVKKFIENGAAVSLWGSRQETVDQALEQLKELYPDAKISGKYPSLKDTAQVTAMINQVKEEFGAVDILVNNAGISQSTSFYNYQPEEFQKIVDLNVTAVFNCSQAAAKIMKEQGGGVILNTSSMVSIYGQPSGCGYPASKFAVNGLTKSLARELGCDNIRVNAVAPGITRTDMVAALPEAVIKPLIATIPLGRVGEPEDIANAFLFLASDMASYVTGEILSVDGAARS
With B1 the Km (purified protein [1]; cofactor NADP+) was 369 ± 30 µM and the kcat (purified protein [1]; cofactor NADP+) was 1.66 ± 0.0333 s⁻¹.

B2: Elen_1325 (Eggerthella lenta DSM 2243) (protein)
chain: MSEARHNPVLAGQTAVITGGASGIGKSIVQRFLEAGASCLAADLNEEALAALKQELAEYGDKLDVVKVDVSNRDDVEGMVDRAVQTFGQMDIIVNNAGIMDNLLPIAEMDDDVWERLMKVNLNSVMYGTRKAVRYFMERGEGGVIINTASLSGLCAGRGGCAYTASKFAVVGLTKNVAFMYADTGIRCNAICPGNTQTNIGVGMRQPSERGMAKATTGYAGATRSGTPEEISAAAAFLASDQAGFINGETLTIDGGWSAY
Protein B2 has a Km (purified protein [2]; cofactor NADH) of 2630 ± 365 µM and a kcat (purified protein [2]; cofactor NADH) of 29.2 ± 1.1 s⁻¹.

B3: Elen_0690 (Eggerthella lenta DSM 2243) (protein)
chain: MGIYVITGATSGIGAKTAEILRERGHEVVNIDLNGGDINANLATKEGRAGAIAELHERFPEGIDAMICNAGVSGGKVPISLIISLNYFGATEMARGVFDLLEKKGGSCVVTSSNSIAQGAARMDVAGMLNNHADEDRILELVKDVDPAIGHVYYASTKYALARWVRRMSPDWGSRGVRLNAIAPGNVRTAMTANMLPEQRAAMEAIPVPTHFGEEPLMDPVEIANAMAFIASPEASGINGVVLFVDGGTDALLNSEKVY
B3 was tested, and the Km (purified protein [1]; cofactor NAD+) was 1280 ± 88 µM and the kcat (purified protein [1]; cofactor NAD+) was 4.85 ± 0.117 s⁻¹.

B4: Rumgna_00694 (Mediterraneibacter gnavus ATCC 29149) (protein)
chain: MNFGGFIMGRFDEKIMLVTGATSGIGRAVAIRAAKEGATVVAVGRNEERGAAVVAAMEEAGGKGEFMKCDVSNKDAVKALFAEIQEKYGKLDVAVNNAGIVGASKTVEELEDDDWFQVIDANLNSCFFCCREEVKLMQPSGGAIVNVSSVAGMRGFPSAAAYVASKHAVSGLTKAVAVDYATKGITCNAICPAGTDTPLTERSSADIKTRMAEIAAQGKDPMEWLKNSMLSGKTETLQKKNATPEEQAATILYFASDEARHITGSIVASDGGFTTY
B4 was tested, and the Km (purified protein [2]; cofactor NADPH) was 56.0 ± 5.6 µM and the kcat (purified protein [2]; cofactor NADPH) was 157 ± 4.53 s⁻¹.

B5: Elen_0198 (Eggerthella lenta DSM 2243) (protein)
chain: MYDDLKGKTVVVTGSSKGLGAAMARRFGAEGMNVVANYRSDEEGARETVRAIEEAGGAAAAVQADVSKNECVDALFDAAMFSFGGVDIWVNNAGIEVASPSDRKSIEEWQRVIDVNLTGVFAGCRRAIDHFLDRKMPGVIINLSSVHEIIPWPHFADYAASKAGVGMLTKTLALEYADRGIRVNAIAPGAMNTPINAEKFADPEARAATERLIPMGYVGAPEDVAAAAAWLASDQASYVTGTTLFVDGGMTLYPGFQFGQG
B5 was tested, and the Km (purified protein [2]; cofactor NADH) was 2660 ± 539 µM and the kcat (purified protein [2]; cofactor NADH) was 9.73 ± 0.583 s⁻¹.
